Holding throughout (type): cell-based, human
Test [1] concerns IL-1β induced expression of MMP13 in SW1353 cells. The test can be described thus: MMP13 protein in supernatants by ELISA after overexpression of PAK1-ID in SW1353 cells. The note with it: SW1353 cells transfected with pCEP4_PAK1-ID vs void vector, ELISA of supernatant. How it is done:
The PAK1 inhibitory domain was subcloned into the pCEP4 vector and transfected into SW1353 cells. Where indicated, IL-1β was used as a stimulus at a concentration of 10 ng/ml for 24 h. Supernatants were collected and the amount of MMP13 protein was determined by ELISA. Values are shown in arbitrary units and represent at least 3 independent results ±SD. The chequered column represents the experiments with the vector pCEP4 (void vector) and the black column represents the experiments with the vector pCEP4_PAK1-ID.
(§1) (Kozak sequence is underlined, hemagglutinin (HA) tag is in bold) and 5′-[…]-3′(SEQ ID NO: 12) (MWG, Biotech AG, Germany). […]
(§2) Cultures of human SW1353 chondrosarcoma were grown in Dulbecco's modified Eagles's medium (DMEM) containing 10% fetal calf serum (FCS) and penicillin/streptomycin (37° C., 5% CO2). […] The transfection efficiency was examined with a FACScan (Becton Dickinson Immunocytometry Systems, Inc., Mountain View, Calif., U.S.A.) and on an inverted fluorescence microscope. […]
(§3) Human embryonic kidney (HEK) 293 were maintained in Dulbecco's modified Eagle's medium supplemented with 10% fetal calf serum. […] Culture supernatant were removed and expression of IL-8 (R&D Systems, Inc., Minneapolis, Minn., U.S.A.), PGE2 (SpiBiom Inc.), and MMP-13 (Amersham Pharmacia Biotech, Inc.) was monitored by ELISA according to the procedure supplied by the manufacturer. […]
(ELISA stands for enzyme-linked immunosorbent assay.)

For test [2], the system named is IL-1β induced expression of PGE2 in SW1353 cells. As to the kind of experiment: PGE2 in supernatants by ELISA after overexpression of PAK1-ID in SW1353 cells. The settings on record: SW1353 cells transfected with pCEP4_PAK1-ID vs void vector; IL-1β and TNFα both 10 ng/ml for 24 h; ELISA of supernatant. How it is done:
The PAK1 inhibitory domain was subcloned into the pCEP4 vector and transfected into SW1353 cells. Cells were stimulated with a combination of IL-1β and TNFα both at a concentration of 10 ng/ml for 24 h. Supernatants were collected and the amount of MMP13 protein was determined by ELISA. Values in arbitrary units represent the mean of two experiments. The punctured column represents the experiments with no vector plus IL1β and TNFα. The chequered column represents the experiments with the vector pCEP4 (void vector) plus IL1β and TNFα. The black column represents the experiments with the vector pCEP4_PAK1-ID plus IL1β and TNFα. […]
as §2, §3

Test [3] relates to IL-1β induced expression of IL-8 in HEK293 cells. The test can be described thus: IL-8 protein in supernatants by ELISA after transient transfection of PAK1-ID in HEK293 cells. The note with it: HEK293 cells transiently transfected with pCDNA3.1_PAK1-ID vs void vector; IL-1β 10 ng/ml, time course; ELISA of supernatant. How it is done: The PAK1 inhibitory domain subcloned into the pCDNA3.1 vector was transiently transfected into HEK293 cells. Cells were stimulated with IL-1β at a concentration of 10 ng/ml for the indicated time periods. Supernatants were collected and the amount of IL-8 protein was determined by ELISA. Values in arbitrary units represent the mean of two experiments. The circles represents the experiments with the vector pCDNA3.1_PAK1-ID plus IL-1β and the squares represent the experiments with the vector pCDNA3.1 (void vector) plus IL-1β.
as §1
Human embryonic kidney (HEK) 293 were maintained in Dulbecco's modified Eagle's medium supplemented with 10% fetal calf serum. […] Culture supernatant were removed and expression of IL-8 (R&D Systems, Inc., Minneapolis, Minn., U.S.A.), PGE2 (SpiBiom Inc.), and MMP-13 (Amersham Pharmacia Biotech, Inc.) was monitored by ELISA according to the procedure supplied by the manufacturer.
For the analysis of MMP13, IL-8 and PGE2 protein levels, supernatants of cell cultures were determined by ELISA for MMP13 (Amersham Pharmacia Biotech, Inc.), IL-8 (R&D Systems, Inc. Minneapolis, Minn., U.S.A.) and PGE2 (SpiBio) as described by the supplier. […]

B1: PAK1-ID: Autoinhibitory domain of PAK1, residues 83 to 149 (SEQ ID NO: 6), HA-tagged, overexpressed from pCEP4 or pcDNA3.1 vector in cells (protein, listed as Homo sapiens)
chain: HTIHVGFDAVTGEFTGMPEQWARLLQTSNITKSEQKKNPQAVLDVLEFYNSKKTSNSQKYMSFTDKS
modifications: HA tag
For B1, the “inhibition of the IL-1β-induced expression of MMP13” value in test [1] (IL-1β 10 ng/ml for 24 h) is around 55%. The “inhibition of basal MMP13 secretion in non-stimulated cells” value in test [1] (non-stimulated (no IL-1β)) was above 80%. For the same molecule, the “inhibition of IL-1β induced expression of PGE2” value in test [2] is “more than 50%”. Besides, the “effect on IL-1β induced expression of IL-8” value in test [3] is “represses the IL-1β induced expression of IL-8”.

The values above are taken from patent publication US7364887B2, “Use of PAK inhibitor for the treatment of a joint disease” (Sanofi-Aventis Deutschland GmbH, priority 2003, dated 2008).
